Measurements from patent publication US20260242497A1.

Tests used:
[1] = molecular target: human FcRn (human) (UniProt P55899); experiment: SPR, Biacore 8K, CM5 chip, antibody immobilised, human FcRn as analyte, pH 6.0
[2] = molecular target: human FcRn (human) (UniProt P55899); experiment: SPR, Biacore 8K, CM5 chip, antibody immobilised, human FcRn as analyte, pH 6.0; average of multiple experiments

Kd [1]	Kd [2]	Fold Increase (FI) relative to Rituximab [1]	Substance
2190 nM	–	–	AVTX-009 (Avalo) (antibody)
–	2130 nM	–	Rituximab (antibody)
1950 nM	–	1.1 fold	CALY-002 (Calypso/Novartis) (antibody)
202 nM	–	10.5 fold	APG-777 (Apogee) (antibody)
